Results published in the nanobody polyreactivity screen of Harvey et al. (2022).

Assay: yeast display, Sf9 membrane polyspecificity reagent, FACS + sequencing; frameworks hold sequencing errors
Summary of the method: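 Using colony PCR, genes from sorted yeast display clones were amplified, then sequenced on MiSeq at 2 × 250 and filtered by CDR length. The clones had been stained with 10% biotinylated, detergent-solubilized Sf9 membrane reagent for 1 hour at 4 °C and sorted by FACS into low and high (top ~1%) gates on anti-HA and streptavidin fluorescence. Polyreactivity labels come from the gate of origin.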

Sequence | polyreactivity (PSR sort gate)
QVQLVESVAGLVQAGGSLRLSCAASGSTFTGNAMGWYRQAPRKERELVAAITKGGSRTYYADSVKGRFTISRDNAKNTVYLQMNSLKPEDTAVYYCAAIERYSYLLYPKFDYWGQGTQVTVSS | high polyreactivity
QVQLVDSVGGLVEAGGILRLSCAASGNTFGRNAMGWYRQEPGKESELVAAISFSGSRPYYADSVKGRFTISRDNAKYTVYLQRNSLKPEDTAVYYCNKRGADWTGFFYYQYDFWGQGTQVTVSS | low polyreactivity
QVQLVESGGGLVQAGGSLRLSCAPSGLIFGRYAMGWYRQAPGKERELVAAISSSGVRTYYADSVKGRFTISRDNAKNTVYLQMNSLKPEDTAVYYCAAAYWSSREDTVIKRYYWGQGTQVTVSS | high polyreactivity
QVQLVESGGGLVQAGGSLRLSCAASGGIFPGNAMGWYRPAPGKERELVATISYSGGSTYYADSVKGRFTISRDNAKNTVYLQMNSLKPEDTAVYYCAARGYKPTRSRRTEYGYWGQGTQVTVSS | high polyreactivity
QVQLVESGGGLVQAGGSLRLSCAASGRTFGGYAMGWYRQAPGKERELVAAISSGGGTYADSVKGRFTISRDNAKNTVYLQMNSLKPEDTAVYYCAAGSRWYWAYKPTVHYYYWGQGTQVTVSS | high polyreactivity
QVQLVQSGGGLVQAGGSLSLSCAASGYIFISYAMGWNRQAPGQEREFVAAITGDGGSTYADSVKGRFTISRDNAKKTVYGQMNSLKPEDTAVYYCAKKGNASRYFIYDYWGQGTQVTVSS | low polyreactivity
QDQLVESGGGLVQAGGSLRLSCAASGRIFPVYAMGWYRQAPGKERELVATITSRTGRTYYADSVKGRFTISRDNAKITVYLQMNSLKPEDTAVYYCAARGYYSAPGYGYWGQGTQVTVSS | high polyreactivity
QVQLVESGGGLVQAGGSLRLSCAASGYIYSVNAMGWYRQAPGKERELVAAIRGSGGSTFYADSVKGRFTISRDNAKNTVYLQMNSLKPEDTAVSYCAASFLGSFTDWVYSVYEYGSWGQGTQVTVSS | low polyreactivity
QVQLVESGGGLVQAGGSLRLSCAASRNTFVPYVMGWYRQAPGKERELVAAISRRGGSTRYADSVKGRFTISRDNAKNTVYLQMNSLKPEDTAVYYCAAKRKSYYSYNFDYWGHGTQVTVSS | high polyreactivity
QDQLVESCGGLVPAGGSLRLSCPASGPIFTYYTMGSYRQAPGKERELVAAITVRGGRTYYADSVKGRFTISRDNEKNTVYLQMNSLKPEDTAVYYCAARGLVRSYDYWGQGTQVSVSS | high polyreactivity
QVQLVESGGGLVQAGGSLRLSCAASGRTFYIYVMGWDRQAPGKERELVAGITVRGGITNYADSVKGGFTSSRDNAKNTVYLQMNSLKPEDTAVYYCAVDDLGSEYDYWGQGTQVTVSS | low polyreactivity
QVQLVESGGGLVQAGGSLRLSCAASGFIFNRYAMGWYRQAPGKERELVAAITASGGSTYYADSVKGRFTISRDNAKNTVYLQMNSLKQEDTAVYYCAARAWLYSRRYGYWGQGTQVTVSS | high polyreactivity
QVQLVESGGGLVQSGGSLRLSCAASGFTFSRYAMGWYRQAPGKERELVAAINWSGGSTYYADSVKGRFTISRDNAKNTVYLQMNSLKPEDTAVYSCAKPAGGSGYDSWGQGTQVTVSS | high polyreactivity
QVQHVESGGGLVQAGGSLRLSSAASGITFPVYAMGWYRPTPGKERELVAAITFSGSNTYYADSVKGRFTISRDNAKNTVYLQMNSLKPEDTAVYYCNAETGGVYFNYYYVGEYYYWGQGTQVTVSS | low polyreactivity
QVQLVESGGGLVQAGGSLRLSCAASGRTFTSYAMGWYRQAPGKERELVAGISSGGSTNYADSVKGRFTISRDNAKNTVYLQMNSLKPVDTAVYYCAAGFSPGTFYAPTLAFDYWGQGTQVTVSS | low polyreactivity
QVQLVESGGGLVQAGGSLRLSCAASGSIFTYNAMGWYRQAPGKERELVAAISTSGGSTYYADSVKGRFTISRDNAKNTVYLQMNSLKPEDTAVYYCAAEYYVYPFWYGYWGQGTQVTVSS | high polyreactivity
QVHLVDSGVGLDQAGGILRLSCAASGSTFGFYALGWYRQSPGKERELVAAINSTGGSTYYADSVKGRFTISRDNAKNTVYLQMNSLKPEDTAVYYCNVDLYSLYDWGQGTQVTVSS | high polyreactivity
QVQLVESGGGLVQAGGSLRLSCAASGIIFSYYAMGWYRQAPGKERELVAAISSGGSTNYADSVKGRFTISRDNAKNTVYLQMNSLKPEDTAVYYCAPLYRDYDWIFEYWGQGTQVTVSS | low polyreactivity
QVQLVESGGGLVQAGGSLRLSCAASGFTFSRKAMGWYRQAPGKERELVASITRSGASTYYADSVKGRFTISRDNAKNTVYLQMNSLKPEDTAVYYCNAYYVALPPNMDYWGQGTQVTLSS | high polyreactivity
QDQLVESGGGLVQAGGSLRLSCAASGSTIPISVRGWYRQAPGKERELVAAITYSGGSTYYADSVKGRFTISRDNAKNTVYLQMNSLKPEDTAVYYCAAGVYRWHYLYKYTQRRVEYWGQGTQVTVSS | high polyreactivity
QVQLVESGGGLVQAGGSLRLSCAASGRTFENYAMGWYRQAPGKERELVAAISKSGGSTYYADSVKGRFTISRDNAKNTVYLQMNSLKPEDTAVYYCAARLPGYYGIGDYWGQGTQVTVSS | high polyreactivity
QVQLVESGGGLVQAGGSLRLSCAASGFTFDFYDMGWYRQAPGKERELVAAISWDGGTTYYADSVKGRFTISRDNAKNTVYLQMNSLKPEDTAVYYCAADDWVYVPTRAWYLYEYWGQGTQVTVSS | low polyreactivity

Sequence | polyreactivity (PSR sort gate)
QVQLVESGGGLVQAGGSLRLSCAASGGTSFYAMGWYRQAPGKDRELVAAITRSGGSTYYADSVKGRFTFSRDNAKNTVYLQMNSLKPEDTAVYYCAALSNHGYYIRMDYWGQGTQVTVSS | high polyreactivity
QVQLVESGGGLVQAGGSLRLSCAASGSTFSYYAMGWYRQAPGKERELVAAISSSGGSTYYADSVKGRFTISRDNAKNTVYLQMNSLKPEDTAVYYCNADSWRRRGRSRYDHWGQGTQVTVSS | low polyreactivity
QVQLVESGGGLVQAGGSLRLSCAASGRIFSRNAMGWYRQAPGKERELVAAITRIGGSTYYADSVKGRFTISRDTAKNTVYLQMNSRKPEDTAVYYSAARGSGKYGWGQGTQVTVSS | high polyreactivity
QVQLVESGGGLVQAGGSLRLSCAASGRIFTFYAMGWYRQAPGKERELVAAISSGGSTYYADSVKGRFTISRDNAKNTVYLQMHSLKPEDTAVYYCAAEPVWYADYDYWGQGTQVTVSS | low polyreactivity
QVQLVESGGGLVQAGGSLRLICAASGRTVYRYAMGWYRQAPGKERELVAAITTSGGSTYYADSVKGRFTISRDNAKKTVNIQMNSLKPEDTAVYYCARRVYGYYIPYNYWGKGTQVTVSS | high polyreactivity
QVQLVESGGGLVQAGGSLRLSCAASGRIFVYYAMGWYRQAPGKEREFVAAITDSGGGTYYADSVKGRFTISRDNAKNTVYLQMNSLKPEDTAVYYCAKRFGQYRYPYDYWGQGTQVTVSS | high polyreactivity
QVQLVESGGGLVQAGGSLRLSCAASGFTFKYYAMGWYRQAPGKERELVAAIRRSAGSTNYADSVKGRFTISRDNAKNTVYLQMNSLKPEDTAVYYCNTVGTRQPMDYWGQGTQVTVSS | high polyreactivity
QVQLVESGGGLVQAGGSLRLSCAASGNIFSFNDMGWYRQAPGKERELVAAITSSDSTNYADSVKGRFTISRDNAKNTVYLQMNSLKPEDTAVFYCATEILTAARDTVVYQFYLGYYYWGQGTQVTVSS | low polyreactivity
QVQLVESGGGLVQAGGSLRLSCAASGRTFPRYAMGWYRQAPGKERELVAAISVRAGITYYADSVKGRFTISRDNAKNTVYLQMNSLKPEDTAVYYCAKSVRYPASDYWGQGTQVTVSS | low polyreactivity
QVQLVESGGGLVQAGGSLRLSCAASGSTFDKYTMGWYRQAPGKDRELVAAISWSGGSTYASSVKGRFTMSRDNAKNTVYLQMTCLKPEDTAVYSCAARYRNYDLWLGNRRGSYYSWGQGTQVTVSS | high polyreactivity
QVQLVDSAGALVQAGGSLRLSCAASGRTFRYNAMGWYRQAPGKERELVAAITQSGGSTYYADSVKGRFTISRDNAKNTVYLQMNSQKPEDTAVYYCAKVRERINYDYWGQGTQVTVSS | low polyreactivity
QVQLVESGGGLVQAGGSLRLSCAASGSIISYNTMGWYRQAPGKEREFVASIRRRGGSTYYADSVKGRFTISRDNAKNTVYLQMNSLKPEDTAGYYCAKANPHYVISDGVYHPRGGYWGHGTQVTVSS | low polyreactivity
QVQLVESGGGLVQAGGSLRLSCSASGRIFWDYAMGRYRQAPGKERELVASSSTDGSTYYADSVKGRFTISRDNANNTFYLQMNSLKPEDTAVYYCAARGYRGRMGYWGQGTQVTVSS | low polyreactivity
QVQLVESGGGLVQAGGSLRLSCAASGSTFSYNAMGCYRQAPGKESELVAAISRGDVSTYYADSVKGRFTISRDNAKNTVYLQMNSLKPEDTAVYYCAAYWYGSQYKWRYDYWGQGTQVTVSS | low polyreactivity
QVQLVESGGGLVQAGGSLRLSCAASGSIFGTYAMGWYIQAPGKEREFVAAISWSDGSTYYADSVKGRFTISRDNAKNTVYLQMNSLKPEDTAVYYCAAGPSQYTEFDYWGQGTQVTVSS | low polyreactivity
QVQLVESGGGLVQAGGSLRLSCAASGRTYGFNVMGWYRQAPGKERELVAAISWSGGSTYYADSVKGRFTISRDNEKNTVYLQMNSLKPEDTAVYYCNKRYVHRYGYWGQGTQVTVSS | low polyreactivity
QVQLVESGGGLVQAGGSLRLSCAASGFIIGSNGMGWYRQAPGKERELVAAISKNGGTTYYADSVKGRVTISRDNANNTVYLLMNSLKPADTAVYYCAAYKAVPNYYYWGQGTQVTVSS | high polyreactivity
QVHLVESGGPLVQAGGSLRLSCAASGYTFWGNAMGWYRQAPGKERELVAGITGSGVSTYYADSVKGRFTISRDNAKNTVYLQMNNLKPEDTAVYYCARRVVFAHKYATSYFLLEYGYWGQGTQVSVSS | low polyreactivity
QVQLVESGGGLVQAGGSLRLSCAASGSTFSKYAMGWYRQAPGKERELVAAINYGGTSTYYADSVKGRFTISRDNAKNTVYLQMNSLKPEDTAVYYCAVIYRRLYTGGQNPYDYWGQGTQVTVSS | high polyreactivity
QVQLVESGGGLVQAGGSLRLSCAASGNTIIRYPMGWYRQAPGKERELVAAISYSGGRTYYADSVKGRFTISRDNAKNTVYLQMNSLKPEDTAVYYCNAASRYGGDYWGQGTQVTVSS | high polyreactivity
QVQLVESGGGLVQAGGSLRLSCAASGRTFGRYVMGWYRQAPGKERELVAAITSSSSSTYADSVKGRFTISRDNAKNTVHLEMNSLKPEDTAVYYCNKRFPSRHRPEYDYWGQGTQVTVSS | high polyreactivity
